Molecular target: 4-1BB-mFc (UniProt Q07011 24-186)
Test: SPR (Biacore), multi-cycle kinetics, antibody captured by anti-human IgG on CM5 chip, 4-1BB antigen as analyte

Row | Binder | Kd [nM] | koff [s⁻¹] | kon [M⁻¹ s⁻¹]
1 | hu6F9B1A6/hu10B2-scFv双功能抗体 (人源化PD-L1/4-1BB双功能抗体) (bispecific antibody, human IgG4 S228P, F234A L235A, also called hu6F9B1A6/4-1BB; hu6F9B1A6-10B2-CC) heavy: QVQLVQSGAEVKKPGSSVKVSCKASGYTFIGYTVHWVRQAPGQGLEWIGWIYPGSGSIKYNEKFKDRATLTADKSTSTVYMELSSLRSEDTAVYYCARHGTGKFNYFDVWGQGTTVTVSSASTKGPSVFPLAPCSRSTSESTAALGCLVKDYFPEPVTVSWNSGALTSGVHTFPAVLQSSGLYSLSSVVTVPSSSLGTKTYTCNVDHKPSNTKVDKRVESKYGPPCPPCPAPEAAGGPSVFLFPPKPKDTLMISRTPEVTCVVVDVSQEDPEVQFNWYVDGVEVHNAKTKPREEQFNSTYRVVSVLTVLHQDWLNGKEYKCKVSNKGLPSSIEKTISKAKGQPREPQVYTLPPSQEEMTKNQVSLTCLVKGFYPSDIAVEWESNGQPENNYKTTPPVLDSDGSFFLYSRLTVDKSRWQEGNVFSCSVMHEALHNHYTQKSLSLSPGKGGGGSGGGGSDVVVTQTPLSLSVTPGQPASISCRSSQSLTNSYGHTYLSWYLQKPGQSPQLLIYGISIRFSGVPDRFSGSGSGTDFTLKISRVEAEDVGVYYCLQGTHQPWTFGGGTKVEIKGGGGSGGGGSGGGGSQVQLVESGGGVVQPGRSLRLSCAASGFTFSTFGLHWVRQAPGKGLEWVAYISSDSNTIYYADTMKGRFTISRDNSKNTLYLQMNSLRAEDTAVYYCTRGDPAYYGYGGRFVYALDFWGQGTLVTVSS VL: DIQLTQSPSFLSASVGDRVTITCRASSTVNYMHWYQQKPGKAPKPWIYATFNLASGVPSRFSGSGSGTEYTLTISSLQPEDFATYYCQTWSSYPLTFGQGTKLEIK | 0.423 | 0.000122 | 289000
2 | hu10B2 (人源化4-1BB抗体) (antibody, V domains shown, The antibody was captured with anti-human IgG in SPR; also called 4-1BB(hu10B2); hu10B2 4-1BB抗体) VH: QVQLVESGGGVVQPGRSLRLSCAASGFTFSTFGLHWVRQAPGKGLEWVAYISSDSNTIYYADTMKGRFTISRDNSKNTLYLQMNSLRAEDTAVYYCTRGDPAYYGYGGRFVYALDFWGQGTLVTVSS VL: DVVVTQTPLSLSVTPGQPASISCRSSQSLTNSYGHTYLSWYLQKPGQSPQLLIYGISIRFSGVPDRFSGSGSGTDFTLKISRVEAEDVGVYYCLQGTHQPWTFGGGTKVEIK | 0.338 | 0.000204 | 602000

Source: patent CN114736303A (YINGNUO LAKE MEDICINE HANGZHOU CO LTD, dated 2022)
